Laboratory results reported in publication PMC12416549 (2024).
Numbering of substitutions follows the chain as printed. Numbers in names are those of the source.

T1: TNFR1 (Homo sapiens, UniProt P19438)
T1 chain: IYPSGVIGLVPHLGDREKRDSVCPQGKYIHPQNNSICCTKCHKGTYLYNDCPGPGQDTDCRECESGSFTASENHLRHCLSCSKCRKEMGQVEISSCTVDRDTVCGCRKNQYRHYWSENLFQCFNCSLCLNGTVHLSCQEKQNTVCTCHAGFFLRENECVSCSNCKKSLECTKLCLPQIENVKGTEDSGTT

B1: T97R (designed binder)
chain: SMEEEVEKAAKEYEKKKKEAIEKHLEKLKAKDKEAAERFLKELEEAAKEYAKDEAKTMSEEEAKRRAKKYKEKVLLSELSEEEQKEIKEAEEKLVRRILKYVEEAAK
B2: K41T (designed binder)
chain: B1 chain with K41T, R97T
B3: E49P (designed binder)
chain: B1 chain with E49P, R97T
B4: V102R (designed binder)
chain: B1 chain with R97T, V102R
B5: A90N (designed binder)
chain: B1 chain with A90N, R97T
B6: V6A (designed binder)
chain: B1 chain with V6A, R97T
B7: T97M (designed binder)
chain: B1 chain with R97M
B8: K73Q (designed binder)
chain: B1 chain with K73Q, R97T
B9: A30V (designed binder)
chain: B1 chain with A30V, R97T
B10: S80M (designed binder)
chain: B1 chain with S80M, R97T
B11: T97F (designed binder)
chain: B1 chain with R97F
B12: D53R (designed binder)
chain: B1 chain with D53R, R97T
B13: E103L (designed binder)
chain: B1 chain with R97T, E103L
B14: R65C (designed binder)
chain: B1 chain with R65C, R97T
B15: E72N (designed binder)
chain: B1 chain with E72N, R97T
B16: I21G (designed binder)
chain: B1 chain with I21G, R97T
B17: E89T (designed binder)
chain: B1 chain with E89T, R97T
B18: D32K (designed binder)
chain: B1 chain with D32K, R97T
B19: A35L (designed binder)
chain: B1 chain with A35L, R97T
B20: E3V (designed binder)
chain: B1 chain with E3V, R97T
B21: L25K (designed binder)
chain: B1 chain with L25K, R97T
B22: E22P (designed binder)
chain: B1 chain with E22P, R97T
B23: K48H (designed binder)
chain: B1 chain with K48H, R97T
B24: K93E (designed binder)
chain: B1 chain with K93E, R97T

Target: T1, TNFR1
Assay: yeast display SC50

Row | apparent Kd (screen) | Binder
1 | 0.49 nM | B1
2 | 0.956 nM | B2
3 | 4.39 nM | B3
4 | 2.25 nM | B4
5 | 0.446 nM | B5
6 | 0.539 nM | B6
7 | 0.539 nM | B7
8 | 1.05 nM | B8
9 | 0.869 nM | B9
10 | 1.16 nM | B10
11 | 0.405 nM | B11
12 | 2.73 nM | B12
13 | 3 nM | B13
14 | 6.43 nM | B14
15 | 1.27 nM | B15
16 | 0.49 nM | B16
17 | 2.25 nM | B17
18 | 1.05 nM | B18
19 | 0.446 nM | B19
20 | 1.69 nM | B20
21 | 1.4 nM | B21
22 | 12.5 nM | B22
23 | 0.718 nM | B23
24 | 0.956 nM | B24
